Laboratory results published in publication PMC12840758.

Target: T1, MtbCspB (cold shock protein CspB) (Mycobacterium tuberculosis H37Rv) (UniProt I6WZM9)
T1 sequence: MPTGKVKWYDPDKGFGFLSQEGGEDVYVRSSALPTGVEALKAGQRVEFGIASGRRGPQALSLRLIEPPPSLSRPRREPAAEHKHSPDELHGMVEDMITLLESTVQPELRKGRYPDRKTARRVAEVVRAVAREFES
Experiment: SPR
Details: […] (or 250 mM) NaCl, 10 mM MgCl2, 0.05% Tween-20, temperature not stated

Substance: GUGGUCAGUCGAGUGGUUUUUU [oligoU RNA]
- Kd: 18.8 nM

Substance: MTS0997 sRNA (Mcr11, ncRv1264Ac)
- Kd: 0.112 nM

Substance: MTS1338 sRNA (DrrS, ncRv11733)
- Kd: 0.296 nM
